{"source": "patent US20160206741", "tested_on": "T1, GRRRGK (SEQ ID NO: 1) oligopeptide crosslink within P(MAA-co-NVP) microgels", "T1 sequence": "GRRRGK"}
{"substance": "trypsin", "values": [{"measurement": "relative turbidity of microgel solutions over time", "value": "reduced relative turbidity as a function of time and trypsin concentration"}, {"measurement": "trypsin activity on the BAEE substrate (absorbance at 253 nm) after 90 min with 0-6 mg/ml microgels", "value": "trypsin activity on the BAEE substrate is reduced as microgel concentration increases"}]}
